We go through 20 sequences from a protein production outcome set (Wang et al. 2014).
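Also: failed if final PepcDB status was selected cloned or expressed and not failed if soluble or beyond.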

A short description of this data set: label from the status in PepcDB records.
In the case of “MTTNIAANSGGIVFHFLGTGGAQQVPAFGCECEVCQQAQRNESKRRRACCAAITTKDRIILIDAGLPELSPYLLPYPQRHILLTHYHMDHVQGLFPLRWGYGEPIPVFGPPDEAGCDDLFKHPGILHFQKPLMAFQPFELDGIRITPVPLIHSKLTYGYLIQTPTHTLAYLTDTIGLPPETTQFLASHTLDYAIVDCSHPPQTMLPRNHNDITRALEIFTQLNPKQLYLTHISHELDRWLQTQTLLPENVHAAYDGLVLGLLEHHHHHH”, the protein production result was “failed”. To “MTTNRETVLSMAKRKRSVVAINASGWRSNGEVMGLQIKDGVLYKDYDAAGYTGAEACVFFDDGTMKVYGNREVDADILISKGARNSFAFGIWLVKDSKPRTAQMTTWADLNVKHPRQAIGQRSDGTLVIITVDGRSLRSSGITAYDMPSLFLSEGCINAFLLDGGGSSQTAVEGKYINNISDGIERAVVDTLTISYPDDLEHHHHHH” belongs “failed”. With “MTTPAPVPRITVLLPVYNGEQYLREALDSLLTQTYRNFSLLAVDDGSTDSSLEILRSIKDPRLSVKVNPRNRGLINTLNESLDLIQSEYVARMDADDIATPYRLEEQLAFMDAHPDVGLCGGYYERFTDTESIVVRPPTTHEDISYALIFDNVMAHNTVMFRRSVLERYRLRYDPAFAYAEDYELWVRFARYSRLANLPRVLVRYRFHPANTSSRFRHEQQIAAAKIRHIHRTNLGLEPRPGDAALHRQLFDMRFEGDLPELTAAGIWLSKLYRVGVRRCRQNPVSTFLEFNKLWYSACGRLADHGLKVFAQFLRQPFGFLGNPAYTLKLAYRCWRRIRIALEHHHHHH” the entry was “failed”.

Regarding “MTTPPLRIGLIGAGYIAAWHADALRAVPGVKLTAVCDPNMDLAEGLAAAHGARAFGDLDDLIGAGLCDGVHILTPPDLHHPLALHCLRAGLHVLVEKPVALNAAQTQEIEDAARAANRRFHAGHNFLGLPSYTRLKREIRRGALGRVSGAEIRWCYPFGPLRAGPFGIWPLRDTRNLMLEFGPHLMSLVIDLFGLPEIEHVALSKPVALPGAGTRPQGWRILARAGEVELVLILSLVETADDRSVTIRGSSARARLDLAADTLVIDAENTADLVANPLLRQLSLARQHLVQGSVNAARQLTSFNRKSPYALSFRGLANGIWEPLAQNAPADPRWSGSSAVAVMTALDAVLERVDWPAPVPASPSRKPAPSAMVIGGTGFIGRALTRELVARGSDVRVISRGRQGSFADLPDQVETVSLSLRDTEGLARAMAGIDTVYNLARSTDSSWEDCLQNDVAVAEGIGKAALAAGVRRLVYTGTIASFDMSDPAATITDATPLPDEMDERNLYARSKAECERRLMALHRQSALPLVIARPGIVLGAGGPLQHWGIGRWHGAGAVRLWGNGRNPLPFVLIGDCVDGLIRCAEAEGIEGRAFNLVGPPILSARDYFDAIHDRLGARIRVSGGNLSLMYAADWVKFQLKTRVLGRSGLTRPSRADWLSRAHQSRFDISGARSALGWHPVSDADAFLTNAVDEAGLLGF”, the protein production result is recorded as “failed”.

For “MTTPRPEYPRPHFDRSHSWLTLNGTWDFRADPAEAYSADASDGYDRAITVPFAWETPASGIAEHWLRTAWYRRTFTVPADWAGQRVVLHFGAVHHAATVWVNGTEVAHHEGGYTPFAADVTDALGDGEHQLTVRVHAPADKRDIAHGKQRSMPRDDYDGVCFTPSSGIWQSVWLEARPATHLAALRLRPNDDLTGITVEAVVHGPAADRAELRLRVRDEDTAVTATLDPDGRLATELPLSAPRLWSPEDPHLYHVDAELTSADGTDRVAAYTGLRTVTVDGESLYLNGRRLFVRGVLDQGYWPETGITAPDDAALRRDIELAAEAGYNLVRKHLKLEDPRFAHHADTLGMLLWAEPASPGRFSPASTAAFAEQIEPMVERDGNSPAIVIWGLYNEEWGLDWDIPGDPAKQRATADAYDRLKALDPTRPVVDNSGWTHVKTDLLDWHYYDESAASWATTVADLLSGERDDFPVKLGPDFVVRKKLAVPGQPLRGLPNLNSEYGGGFTGLDRAWHLRWQTQELRRHDRLAGYVYTELYDIEHESAGLLDFGRGAKDLAGVDPAHANAPTTLVLDVTPVAPGRDLLTTGPDFTVDVHVSHHGDDPVAGTVHTTWTPVYARTPDAPGDAVPGCRAEAKPYVLGAAVTVPAALPDGWTSGRLHLALVVDGTVAARTALDVDTRTDPYIGDDPQARPTA”, the protein production entry is recorded as “failed”. With “MTTPRRALIVIDVQNEYVTGDLPIEYPDVQSSLANIARAMDAARAAGVPVVIVQNFAPAGSPLFARGSNGAELHPVVSERARDHYVEKSLPSAFTGTDLAGWLAARQIDTLTVTGYMTHNCDASTINHAVHSGLAVEFLHDATGSVPYENSAGFASAEEIHRVFSVVLQSRFAAVASTDEWIAAVQGGTPLARGNIYASNQKARARRATA” the entry was “not failed”; with “MTTPSHLSDRYELGEILGFGGMSEVHLARDLRLHRDVAVKVLRADLARDPSFYLRFRREAQNAAALNHPAIVAVYDTGEAETPAGPLPYIVMEYVDGVTLRDIVHTEGPMTPKRAIEVIADACQALNFSHQNGIIHRDVKPANIMISATNAVKVMDFGIARAIADSGNSVTQTAAVIGTAQYLSPEQARGDSVDARSDVYSLGCVLYEVLTGEPPFTGDSPVSVAYQHVREDPIPPSARHEGLSADLDAVVLKALAKNPENRYQTAAEMRADLVRVHNGEPPEAPKVLTDAERTSLLSSAAGNLSGPRTDPLPRQDLDDTDRDRSIGSVGRWVAVVAVLAVLTVVVTIAINTFGGITRDVQVPDVRGQSSADAIATLQNRGFKIRTLQKPDSTIPPDHVIGTDPAANTSVSAGDEITVNVSTGPEQREIPDVSTLTYAEAVKKLTAAGFGRFKQANSPSTPELVGKVIGTNPPANQTSAITNVVIIIVGSGPATKDIPDVAGQTVDVAQKNLNVYGFTKFSQASVDSPRPAGEVTGTNPPAGTTVPVDSVIELQVSKGNQFVMPDLSGMFWVDAEPRLRALGWTGMLDKGADVDAGGSQHNRVVYQNPPAGTGVNRDGIITLRFGQ”, “failed”; with “MTTSGERRVAGLAMIGSAACWGSATVMSRDLLVSMTSIQLLLVQLMASVCVLLALAAPRFPWTYRSREMTKGALCGVLEPGLAYVVGLAGLAQTTAGRASIISASEPVLIVLVAWVLFNQRPGLRLMAAIAIAVGGLVLVSWSPVVEDRGGAFRGDMMVVLATLFAAGYVVISSRIVGSFPAASLASGQQMVGLAFAMLVYAGAMAHGDDMGGFGAIPGGTLAYAALSGVVQYALAFWLYLIGLRYLSAGAAGLWLTLIPVFGLAGAWLWLGERPGLLTVLGAIVIVSAVVLGNRGGTE”, “failed”. On to “MTTSIQRRISIVIPCLNDAVLLEQCLSSIVAQTLQPEEVIVVDNGSTDNSVEVANRMGARVVHEPLQGITWASAAGYNSARGDLIVRFDADCVIPPDHLSQVNAIWNRTEETPGRTIVALTGTGSFDIPGRMGEWLALCYLGAYRWSTKQALGHYPIFGSNSVISRQWWEDVKDQITLSETFVHEDMYFSFFVRPHETVWFEKNLKLIMHPRALMGVRQSFIRLVRGFYTIKIAWKREPVHQRLESRRDWTLEHHHHHH”, for which the protein production result is reported as “failed”. As to “MTTTASQEAFLQAFHAEYPAVTAEAFGRGHAPDGRSSYEILCDRVAGSMRVLDLGCGDGLLLEFLARRSGRQLAGVDLSPHSLALARRRPALSEAKLEEGRAQELPFADDSFDACVSHMALMLMSEIEQVASEVARVLSPGGVLACVVGGGAVGGEAYERFLALLRCTIEETPASQRIPALGDKRTRSREGLDEVLGPAGFTAVDWETVPIDLSAPGEQVWAAVSSLYDLGPLDRATLDRLREAFFAEVRDMTTSEGHVPCAFKIHLATARLR”, the protein production result is listed as “failed”. With “MTTTIEVGMLGLGTVGSGVVERLTRSAAKIEQTQGIRLHLAAVAVNHLNAPRTVQLPIGTRLTDSLTNVVCDRKIQLVIEVMGTVATAKKAIVAALNQGKAVVTANKDLIATAGPELAALAKKQGCDLFYEASVAGGIPILRTLTDSYVTDNVQAVSGIINGTANYMLSAMATGQSYEQALATAQATGYAEADPTNDVAGIDAAYKLMILSRFAFGQELSLPQIAPTGITHLSASVCRLAAENGWQIKLLAQIQRHGSGLYCRVAPVAVPVDQPLSQINGVQNAVAVQSEAIGTSLYTGPGAGSTATANSVLNDVLVAAKHLINGYRMIRNQKRSVSLTVTRFDQLPQTYLGIGPVAPEAVKYYANEADFSVKTIADDCYQITGLSAVKRKKLRANLPLTLIPIAGTTDWKQVTENSITSPINVAILEHHHHHH” the entry was “not failed”; with “MTVANWQVRDLTLILRTGEMQSRLEQARTDFGALLPETVYFQPSAIRLGEFDDEYILTRQELVYVYLREDIARQCALRRHLPSNSSNSGIMATAIPPWLMDARRLNRVMQERCDQGGLVHYYQGPHTNQFFLAIMPSNCFVRFGTDVINNENYGFYARGGNYTEEGEDDDDEMDDEDETGGAETRDSQTGNLINYPIIALGSCHLSALEHHHHHH”, “not failed”; with “MTVDPASHITIPEADLARLRHCNHHDPHGFYGWHETEAGSVIRTRQVGATQVNLLIDDTSHVMTPIGDDIFAIDLGHRERADYRLEVTWPDQEPQVKADPYYFLPTVG”, “not failed”. To “MTVGQVLRSYPQTVQTFLELGMHCLGCPSSTMESIEGAALTHGKKPDELVEKLNKVIAANLEHHHHHH” belongs “failed”; to “MTWTNVLAMLVWTGASAVLLFAIMWVDSIFTKYNDLKEIKNGNTAVTTRFVMKLFAQGYILSQSITKANDLWQALLASAVSFVILLVVEMFIEFVLKKMAGLDLEEGTKEGSVAHAMLAGSLHIVGALILGACL”, “failed”; to “MTYEAFVELVERLWEEVPEDFKRGLQGVHVFPEAKPEPGLEGVWRLGEYLDPGPPSAFGGFEDLGRHIALYYGSFLEVAGEGFDWEAEVWETLLHELRHHLESLAGRDDLVQEDLRRLDAFRRGGPSGEG”, “not failed”. To “MTYELSTDREFDLIAIGRACIDLNAVEYNRPMEETMTFSKYVGGSPANIVIGSSKLGLKAGFIGKIADDQHGRFIESYMRGVGVDTSNLVVDQEGHKTGLAFTEIKSPEECSILMYRQDVADLYLSPEEVNEAYIRRSKLLLVSGTALSKSPSREAVLKAIRLAKRNDVKVVFELDYRPYSWETPEETAVYYSLVAEQSDIVIGTREEFDVLENRTEKGDNDETIRYLFKHSPELIVIKHGVEGSFAYTKAGEAYRGYAYKTKVLKTFGAGDSYASAFLYALISGKGIETALKYGSASASIVVSKHSSSDAMPSVEEIEALIEKDETITIA” belongs “not failed”; to “MTYLETAAQFYSEVAQTPQVGLCCVQSTPLQLPGLKIPLPMQEMNYGCGTTVHPTELGKQPTVLYVGVGGGLEALQFAYFSRRPGAVIAVEPVAAMREAAARNLEMALTDNPWFDSSFVEIREGDAFNLPVADGSVDIVAQNCLFNIFEPEDLTRALKEAYRVLKPGGRLQMSDPIATSPVPAHLQQDERLRAMCLSGALTYEEYTQRIIDAGFGQIEIRARRPYRLLDSQTYNLETHLLLESLDSVSFKVPMPEDGACIFTGRTAIYAGCDAFFDDKAGHILQRGIPATVCDKTAAKLATVKPKEVIITDSTWHYNGGGCCLEHHHHHH”, “not failed”; to “MVADESITVTVEVKNTGVVAGAEVVQLYLHDKKASVSRPIKELKGFAKVYLAPGESKRVSISLNKRDLSFWDVHTNDWLAEVGEFEVLLGTSLDNIRQKATFTYQNKYEQLEHHHHHH”, “failed”. As to “MVAHSLVPLSPAAHAARLSSPSPRSLPQAPPVVLAVPPINRRTILVGLGGALWSWNALAAKEEAMAAARRPPPPPPKEKKDPTVTGVQAKVLASKKRKEEMKASIAKLREKGKPVVEAKPSSSSSE”, the protein production result is reported as “failed”.
